According to patent US20260207798A1, “CYCLIC PEPTIDES AS PET IMAGING AGENTS OF GRANZYME B” (priority 2022, published 2026):
Bridge positions count the residues as written; N and C are the ends.

B1: Compound 24a (peptide)
peptide: {CH2CO}-FNFEDQSVDTWQPCG-NH2
modifications: thioether N-14
SMILES: CC(C)[C@@H]1NC(=O)[C@H](CO)NC(=O)[C@H](CCC(N)=O)NC(=O)[C@H](CC(=O)O)NC(=O)[C@H](CCC(=O)O)NC(=O)[C@H](Cc2ccccc2)NC(=O)[C@H](CC(N)=O)NC(=O)[C@H](Cc2ccccc2)NC(=O)CSC[C@@H](C(=O)NCC(N)=O)NC(=O)[C@@H]2CCCN2C(=O)[C@H](CCC(N)=O)NC(=O)[C@H](Cc2c[nH]c3ccccc23)NC(=O)[C@H]([C@@H](C)O)NC(=O)[C@H](CC(=O)O)NC1=O
B2: Compound 35a (peptide)
peptide: {CH2CO}-FNFEDQSAWTWQPCG-NH2
modifications: thioether N-14
SMILES: C[C@@H]1NC(=O)[C@H](CO)NC(=O)[C@H](CCC(N)=O)NC(=O)[C@H](CC(=O)O)NC(=O)[C@H](CCC(=O)O)NC(=O)[C@H](Cc2ccccc2)NC(=O)[C@H](CC(N)=O)NC(=O)[C@H](Cc2ccccc2)NC(=O)CSC[C@@H](C(=O)NCC(N)=O)NC(=O)[C@@H]2CCCN2C(=O)[C@H](CCC(N)=O)NC(=O)[C@H](Cc2c[nH]c3ccccc23)NC(=O)[C@H]([C@@H](C)O)NC(=O)[C@H](Cc2c[nH]c3ccccc23)NC1=O
B3: Compound 34a (peptide)
peptide: {CH2CO}-FNFEDQSAKTWQPCG-NH2
modifications: thioether N-14
SMILES: C[C@@H]1NC(=O)[C@H](CO)NC(=O)[C@H](CCC(N)=O)NC(=O)[C@H](CC(=O)O)NC(=O)[C@H](CCC(=O)O)NC(=O)[C@H](Cc2ccccc2)NC(=O)[C@H](CC(N)=O)NC(=O)[C@H](Cc2ccccc2)NC(=O)CSC[C@@H](C(=O)NCC(N)=O)NC(=O)[C@@H]2CCCN2C(=O)[C@H](CCC(N)=O)NC(=O)[C@H](Cc2c[nH]c3ccccc23)NC(=O)[C@H]([C@@H](C)O)NC(=O)[C@H](CCCCN)NC1=O
B4: Compound 32a (peptide)
peptide: {CH2CO}-FNFEDQSRDTWQPCG-NH2
modifications: thioether N-14
SMILES: C[C@@H](O)[C@@H]1NC(=O)[C@H](CC(=O)O)NC(=O)[C@H](CCCNC(=N)N)NC(=O)[C@H](CO)NC(=O)[C@H](CCC(N)=O)NC(=O)[C@H](CC(=O)O)NC(=O)[C@H](CCC(=O)O)NC(=O)[C@H](Cc2ccccc2)NC(=O)[C@H](CC(N)=O)NC(=O)[C@H](Cc2ccccc2)NC(=O)CSC[C@@H](C(=O)NCC(N)=O)NC(=O)[C@@H]2CCCN2C(=O)[C@H](CCC(N)=O)NC(=O)[C@H](Cc2c[nH]c3ccccc23)NC1=O
B5: Compound 28a (peptide)
peptide: {CH2CO}-FNFEDQSARTWQPCG-NH2
modifications: thioether N-14
SMILES: C[C@@H]1NC(=O)[C@H](CO)NC(=O)[C@H](CCC(N)=O)NC(=O)[C@H](CC(=O)O)NC(=O)[C@H](CCC(=O)O)NC(=O)[C@H](Cc2ccccc2)NC(=O)[C@H](CC(N)=O)NC(=O)[C@H](Cc2ccccc2)NC(=O)CSC[C@@H](C(=O)NCC(N)=O)NC(=O)[C@@H]2CCCN2C(=O)[C@H](CCC(N)=O)NC(=O)[C@H](Cc2c[nH]c3ccccc23)NC(=O)[C@H]([C@@H](C)O)NC(=O)[C@H](CCCNC(=N)N)NC1=O
B6: Compound 29a (peptide)
peptide: {CH2CO}-FNFEDQNADTWQPCG-NH2
modifications: thioether N-14
SMILES: C[C@@H]1NC(=O)[C@H](CC(N)=O)NC(=O)[C@H](CCC(N)=O)NC(=O)[C@H](CC(=O)O)NC(=O)[C@H](CCC(=O)O)NC(=O)[C@H](Cc2ccccc2)NC(=O)[C@H](CC(N)=O)NC(=O)[C@H](Cc2ccccc2)NC(=O)CSC[C@@H](C(=O)NCC(N)=O)NC(=O)[C@@H]2CCCN2C(=O)[C@H](CCC(N)=O)NC(=O)[C@H](Cc2c[nH]c3ccccc23)NC(=O)[C@H]([C@@H](C)O)NC(=O)[C@H](CC(=O)O)NC1=O
B7: Compound 30a (peptide)
peptide: {CH2CO}-FNFEDQGADTWQPCG-NH2
modifications: thioether N-14
SMILES: C[C@@H]1NC(=O)CNC(=O)[C@H](CCC(N)=O)NC(=O)[C@H](CC(=O)O)NC(=O)[C@H](CCC(=O)O)NC(=O)[C@H](Cc2ccccc2)NC(=O)[C@H](CC(N)=O)NC(=O)[C@H](Cc2ccccc2)NC(=O)CSC[C@@H](C(=O)NCC(N)=O)NC(=O)[C@@H]2CCCN2C(=O)[C@H](CCC(N)=O)NC(=O)[C@H](Cc2c[nH]c3ccccc23)NC(=O)[C@H]([C@@H](C)O)NC(=O)[C@H](CC(=O)O)NC1=O
B8: Compound 36a (peptide)
peptide: {CH2CO}-FNFEDQSAYTWQPCG-NH2
modifications: thioether N-14
SMILES: C[C@@H]1NC(=O)[C@H](CO)NC(=O)[C@H](CCC(N)=O)NC(=O)[C@H](CC(=O)O)NC(=O)[C@H](CCC(=O)O)NC(=O)[C@H](Cc2ccccc2)NC(=O)[C@H](CC(N)=O)NC(=O)[C@H](Cc2ccccc2)NC(=O)CSC[C@@H](C(=O)NCC(N)=O)NC(=O)[C@@H]2CCCN2C(=O)[C@H](CCC(N)=O)NC(=O)[C@H](Cc2c[nH]c3ccccc23)NC(=O)[C@H]([C@@H](C)O)NC(=O)[C@H](Cc2ccc(O)cc2)NC1=O
B9: Compound 27a (peptide)
peptide: {CH2CO}-FNFEDQAADTWQPCG-NH2
modifications: thioether N-14
SMILES: C[C@@H]1NC(=O)[C@H](C)NC(=O)[C@H](CCC(N)=O)NC(=O)[C@H](CC(=O)O)NC(=O)[C@H](CCC(=O)O)NC(=O)[C@H](Cc2ccccc2)NC(=O)[C@H](CC(N)=O)NC(=O)[C@H](Cc2ccccc2)NC(=O)CSC[C@@H](C(=O)NCC(N)=O)NC(=O)[C@@H]2CCCN2C(=O)[C@H](CCC(N)=O)NC(=O)[C@H](Cc2c[nH]c3ccccc23)NC(=O)[C@H]([C@@H](C)O)NC(=O)[C@H](CC(=O)O)NC1=O
B10: Compound 33a (peptide)
peptide: {CH2CO}-FNFEDQSKDTWQPCG-NH2
modifications: thioether N-14
SMILES: C[C@@H](O)[C@@H]1NC(=O)[C@H](CC(=O)O)NC(=O)[C@H](CCCCN)NC(=O)[C@H](CO)NC(=O)[C@H](CCC(N)=O)NC(=O)[C@H](CC(=O)O)NC(=O)[C@H](CCC(=O)O)NC(=O)[C@H](Cc2ccccc2)NC(=O)[C@H](CC(N)=O)NC(=O)[C@H](Cc2ccccc2)NC(=O)CSC[C@@H](C(=O)NCC(N)=O)NC(=O)[C@@H]2CCCN2C(=O)[C@H](CCC(N)=O)NC(=O)[C@H](Cc2c[nH]c3ccccc23)NC1=O
B11: Compound 31a (peptide)
peptide: {CH2CO}-FNFEDQSWDTWQPCG-NH2
modifications: thioether N-14
SMILES: C[C@@H](O)[C@@H]1NC(=O)[C@H](CC(=O)O)NC(=O)[C@H](Cc2c[nH]c3ccccc23)NC(=O)[C@H](CO)NC(=O)[C@H](CCC(N)=O)NC(=O)[C@H](CC(=O)O)NC(=O)[C@H](CCC(=O)O)NC(=O)[C@H](Cc2ccccc2)NC(=O)[C@H](CC(N)=O)NC(=O)[C@H](Cc2ccccc2)NC(=O)CSC[C@@H](C(=O)NCC(N)=O)NC(=O)[C@@H]2CCCN2C(=O)[C@H](CCC(N)=O)NC(=O)[C@H](Cc2c[nH]c3ccccc23)NC1=O

Target: T1, human Granzyme B (human, UniProt P10144 21-247)
T1 construct: Captured on a Series S Streptavidin chip for SPR; also called hGranzyme B; GzmB
T1 sequence (P10144 21-247 limits assumed): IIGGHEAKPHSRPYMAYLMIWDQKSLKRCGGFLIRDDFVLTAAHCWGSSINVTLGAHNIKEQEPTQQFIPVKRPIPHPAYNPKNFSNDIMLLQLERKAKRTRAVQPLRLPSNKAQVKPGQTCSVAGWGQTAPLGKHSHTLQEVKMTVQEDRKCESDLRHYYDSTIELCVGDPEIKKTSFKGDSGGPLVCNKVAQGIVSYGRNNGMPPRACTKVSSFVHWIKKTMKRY
Test: SPR, Biacore 8k+, hGranzyme B captured on SA chip, single cycle kinetics, 1:1 model
Method: The kinetics of test peptide binding to human Granzyme B (hGranzyme B) was determined by SPR. All experiments were performed at 25° C. using the Biacore 8k+ instrument (Cytiva, Marlborough, MA). The Biacore 8k+ Insight Evaluation Software Version 3.0 was used to fit the data with a 1:1 binding model to determine the association rate constant kₐ (M⁻¹s⁻¹, where “M” ~equals molar and “s” ~equals seconds) and the dissociation rate constant kd (s⁻¹). These rate constants were used to calculate the equilibrium dissociation constant. KD (M)=kd/kₐ.
To measure the binding kinetics of peptides of interest, surfaces were prepared by a capture method to a Series S Streptavidin (SA) chip using a 1×HBS-EP+ running buffer (Cytiva). hGranzyme B was diluted to 10 μg/mL in IX HBS-EP+ and flowed over spot 2 of each flow cell on the chip at a flow rate of 10 ul/min for 20 s to achieve a level of capture of ~1100 RU. An unmodified spot 1 of each flow cell was used as a matrix binding control or reference surface. Binding kinetics were measured using single cycle kinetics at 25° C. by injecting 5 concentrations with 3-fold serial dilutions of test peptides from 0.01 μM to 1 μM. Compound dilutions were performed manually in a running buffer containing 1×HBS-EP+(Cytiva), and a final concentration of 2% DMSO. The interaction analyses over hGranzyme B, were performed using a 120 s association time and a 900 s dissociation time. All experiments were conducted at a flow rate of 50 μL/min with a data collection rate of 10 Hz.
Peptide dilution series included 2 zero concentration points (no compound) which were averaged and subtracted from the peptide concentration injection as DMSO control responses. Binding data acquired from the reference surface (matrix binding control) were subtracted from the binding data for hGranzyme B surface on the chip to determine specific binding. Next, the association phase data were solvent corrected to account for any signal fluctuation throughout the experiment due to subtle DMSO concentration differences. Corrected response data were analyzed using the Biacore 8k+ Evaluation Software Version 3.0 according to the manufacturer. SPR data for representative compounds of the disclosure are found in Table 8.

Kd [nM] | Binder
28.8 | B1
24 | B2
29.3 | B3
30.3 | B4
18 | B5
31.4 | B6
25.9 | B7
24.2 | B8
10.9 | B9
33.9 | B10
23.3 | B11
